According to PMC11189300, “Structure of the human KMN complex and implications for regulation of its assembly” (Nature Structural & Molecular Biology, 2024):

T1: DSN1 (subunit of Mis12C in the KMN structure) (human, UniProt Q9H410 1-356)
T1 construct: DSN1, human; also called DSN1^SORT-HIS; source: Tnao38 insect cells (baculovirus), co-expressed in Mis12C, purified (Talon, SEC)
T1 sequence (looked up): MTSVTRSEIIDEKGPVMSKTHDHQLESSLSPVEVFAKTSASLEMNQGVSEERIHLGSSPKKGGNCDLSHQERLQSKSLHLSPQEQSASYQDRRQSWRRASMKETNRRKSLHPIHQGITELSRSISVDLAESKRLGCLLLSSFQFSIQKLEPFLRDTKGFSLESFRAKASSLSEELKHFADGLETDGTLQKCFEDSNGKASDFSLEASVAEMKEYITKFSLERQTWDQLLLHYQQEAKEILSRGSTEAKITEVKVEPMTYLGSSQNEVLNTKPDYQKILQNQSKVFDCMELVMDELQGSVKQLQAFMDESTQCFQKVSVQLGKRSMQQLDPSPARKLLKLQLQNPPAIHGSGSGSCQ

B1: Mis12 complex (Mis12C), full length: MIS12, PMF1, NSL1, DSN1 (complex, human)
chain 1: MSVDPMTYEAQFFGFTPQTCMLRIYIAFQDYLFEVMQAVEQVILKKLDGIPDCDISPVQIRKCTEKFLCFMKGHFDNLFSKMEQLFLQLILRIPSNILLPEDKCKETPYSEEDFQHLQKEIEQLQEKYKTELCTKQALLAELEEQKIVQAKLKQTLTFFDELHNVGRDHGTSDFRESLVSLVQNSRKLQNIRDNVEKESKRLKIS
chain 2: MAEASSANLGSGCEEKRHEGSSSESVPPGTTISRVKLLDTMVDTFLQKLVAAGSYQRFTDCYKCFYQLQPAMTQQIYDKFIAQLQTSIREEISDIKEEGNLEAVLNALDKIVEEGKVRKEPAWRPSGIPEKDLHSVMAPYFLQQRDTLRRHVQKQEAENQQLADAVLAGRRQVEELQLQVQAQQQAWQALHREQRELVAVLREPE
chain 3: MAGSPELVVLDPPWDKELAAGTESQALVSATPREDFRVRCTSKRAVTEMLQLCGRFVQKLGDALPEEIREPALRDAQWTFESAVQENISINGQAWQEASDNCFMDSDIKVLEDQFDEIIVDIATKRKQYPRKILECVIKTIKAKQEILKQYHPVVHPLDLKYDPDPAPHMENLKCRGETVAKEISEAMKSLPALIEQGEGFSQVLRMQPVIHLQRIHQEVFSSCHRKPDAKPENFITQIETTPTETASRKTSDMVLKRKQTKDCPQRKWYPLRPKKINLDT
chain 4: MTSVTRSEIIDEKGPVMSKTHDHQLESSLSPVEVFAKTSASLEMNQGVSEERIHLGSSPKKGGNCDLSHQERLQSKSLHLSPQEQSASYQDRRQSWRRASMKETNRRKSLHPIHQGITELSRSISVDLAESKRLGCLLLSSFQFSIQKLEPFLRDTKGFSLESFRAKASSLSEELKHFADGLETDGTLQKCFEDSNGKASDFSLEASVAEMKEYITKFSLERQTWDQLLLHYQQEAKEILSRGSTEAKITEVKVEPMTYLGSSQNEVLNTKPDYQKILQNQSKVFDCMELVMDELQGSVKQLQAFMDESTQCFQKVSVQLGKRSMQQLDPSPARKLLKLQLQNPPAIHGSGSGSCQ
notes: MIS12, human, subunit of the Mis12 complex; PMF1, human, subunit of the Mis12 complex; NSL1, human, subunit of the Mis12 complex; DSN1, human, subunit of the Mis12 complex (DSN1^SORT-HIS); In BLI one partner was biotinylated by sortase (GGGG-biotin peptide); also called Mis12C^WT; wild-type Mis12C; source: Tnao38 insect cells (baculovirus from pBIG1A), purified (Talon, SEC); copies: + + +

Legend:
Conditions in all cases: both partners purified
[1] = molecular target: B1; assay: cryo-EM structure; eight-subunit KMN (full-length Mis12C, SPC24 109–197/SPC25 92–224, ZWINT, KNL1 2,021–2,342), 0.3 mg/ml with 0.003% Triton; reconstruction at 4.5 Å; model fitted from known structures and AF2 predictions and refined against the map
[2] = molecular target: T1, DSN1 (subunit of Mis12C in the KMN …); assay: as above
[3] = molecular target: T2, Ndc80 complex (Ndc80C): NDC80^HEC1, NUF2, SPC24, SPC25 (human, UniProt O14777 1-642; Q9BZD4 1-464; Q8NBT2 1-197; Q9HBM1 1-224); assay: BLI; Octet SA biosensors loaded with the biotinylated ligand, analyte at different concentrations; 25 °C; 50 mM HEPES pH 8.0, 150 mM NaCl, 2 mM TCEP, 0.05% Tween-20; which partner was loaded is not given
T2 construct: NDC80 (HEC1), human; NUF2, human; SPC24, human; SPC25, human; also called complete Ndc80C; copies: + + +

[4] = molecular target: B1; assay: ITC; PEAQ-ITC; 50 mM HEPES pH 8.0, 150 mM NaCl, 1 mM TCEP; 19 injections; one-site binding fit

T2 sequence (O14777 whole entry, chain 1 of 2): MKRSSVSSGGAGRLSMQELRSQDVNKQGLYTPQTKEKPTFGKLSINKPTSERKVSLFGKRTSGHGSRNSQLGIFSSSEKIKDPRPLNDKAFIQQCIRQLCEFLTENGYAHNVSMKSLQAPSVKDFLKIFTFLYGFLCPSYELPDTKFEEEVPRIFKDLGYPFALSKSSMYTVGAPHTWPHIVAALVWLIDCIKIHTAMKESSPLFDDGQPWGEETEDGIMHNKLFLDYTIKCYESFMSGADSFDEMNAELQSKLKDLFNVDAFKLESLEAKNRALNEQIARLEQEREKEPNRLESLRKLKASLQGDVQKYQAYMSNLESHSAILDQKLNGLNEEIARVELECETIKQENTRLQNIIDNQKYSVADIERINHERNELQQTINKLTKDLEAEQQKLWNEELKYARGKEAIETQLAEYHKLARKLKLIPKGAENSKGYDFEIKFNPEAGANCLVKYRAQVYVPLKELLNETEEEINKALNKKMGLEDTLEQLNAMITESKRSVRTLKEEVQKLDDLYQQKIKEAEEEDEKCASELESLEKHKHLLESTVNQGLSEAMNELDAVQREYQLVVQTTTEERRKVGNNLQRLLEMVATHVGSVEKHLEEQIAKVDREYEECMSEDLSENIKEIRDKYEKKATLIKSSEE
T2 sequence (Q9BZD4 whole entry, chain 2 of 2): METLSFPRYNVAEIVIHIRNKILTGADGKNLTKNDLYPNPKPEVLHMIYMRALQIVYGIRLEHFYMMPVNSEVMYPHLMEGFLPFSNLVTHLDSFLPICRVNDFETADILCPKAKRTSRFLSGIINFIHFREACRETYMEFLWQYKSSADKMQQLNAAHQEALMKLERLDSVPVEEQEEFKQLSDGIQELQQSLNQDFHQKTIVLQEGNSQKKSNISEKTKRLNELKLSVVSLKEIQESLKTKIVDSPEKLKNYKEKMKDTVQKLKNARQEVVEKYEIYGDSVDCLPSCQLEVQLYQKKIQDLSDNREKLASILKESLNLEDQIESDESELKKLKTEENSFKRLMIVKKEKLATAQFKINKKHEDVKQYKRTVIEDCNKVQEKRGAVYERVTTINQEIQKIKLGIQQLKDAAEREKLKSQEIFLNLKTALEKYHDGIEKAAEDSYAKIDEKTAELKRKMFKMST

Row | Binder | binding result [2] | Kd [3] [nM] | fold reduction of binding affinity against the wild-type pair [4] [fold] | further results
1 | KNL1 residues 2,021–2,342 (domain or fragment, human, UniProt Q8NG31 2021-2342, looked up, KNL1 (CASC5), human, C-terminal region, residues 2,021–2,342; numbering of isoform 1 of the CASC5 gene; also called KNL1_(2,021–2,342); Knl1_(2,021–2,342); source: E. coli BL21(DE3)-Codon-plus-RIPL, purified (glutathione-agarose, TEV cleavage, SEC)) GKLVQSAQNEREKLQIKIDEMDKILKKIDNCLTEMETETKNLEDEEKNNPVEEWDSEMRAAEKELEQLKTEEEELQRNLLELEVQKEQTLAQIDFMQKQRNRTEELLDQLSLSEWDVVEWSDDQAVFTFVYDTIQLTITFEESVVGFPFLDKRYRKIVDVNFQSLLDEDQAPPSSLLVHKLIFQYVEEKESWKKTCTTQHQLPKMLEEFSLVVHHCRLLGEEIEYLKRWGPNYNLMNIDINNNELRLLFSSSAAFAKFEITLFLSAYYPSVPLPSTIQNHVGNTSQDDIATILSKVPLENNYLKNVVKQIYQDLFQDCHFYH | binds |  |  | binding result [1]: binds
2 | B1 |  | ~6 |  | 
3 | Mis12C with KNL1_(2,026–2,342) bound (complex, human, MIS12, human; PMF1, human; NSL1, human; DSN1, human; numbering of isoform 1 of the CASC5 gene; also called Mis12C + KNL1; source: Mis12C: Tnao38 insect cells, purified; KNL1: E. coli BL21(DE3)-Codon-plus-RIPL, purified; copies: + + + +) chain 1: MSVDPMTYEAQFFGFTPQTCMLRIYIAFQDYLFEVMQAVEQVILKKLDGIPDCDISPVQIRKCTEKFLCFMKGHFDNLFSKMEQLFLQLILRIPSNILLPEDKCKETPYSEEDFQHLQKEIEQLQEKYKTELCTKQALLAELEEQKIVQAKLKQTLTFFDELHNVGRDHGTSDFRESLVSLVQNSRKLQNIRDNVEKESKRLKIS chain 2: MAEASSANLGSGCEEKRHEGSSSESVPPGTTISRVKLLDTMVDTFLQKLVAAGSYQRFTDCYKCFYQLQPAMTQQIYDKFIAQLQTSIREEISDIKEEGNLEAVLNALDKIVEEGKVRKEPAWRPSGIPEKDLHSVMAPYFLQQRDTLRRHVQKQEAENQQLADAVLAGRRQVEELQLQVQAQQQAWQALHREQRELVAVLREPE chain 3: MAGSPELVVLDPPWDKELAAGTESQALVSATPREDFRVRCTSKRAVTEMLQLCGRFVQKLGDALPEEIREPALRDAQWTFESAVQENISINGQAWQEASDNCFMDSDIKVLEDQFDEIIVDIATKRKQYPRKILECVIKTIKAKQEILKQYHPVVHPLDLKYDPDPAPHMENLKCRGETVAKEISEAMKSLPALIEQGEGFSQVLRMQPVIHLQRIHQEVFSSCHRKPDAKPENFITQIETTPTETASRKTSDMVLKRKQTKDCPQRKWYPLRPKKINLDT chain 4: MTSVTRSEIIDEKGPVMSKTHDHQLESSLSPVEVFAKTSASLEMNQGVSEERIHLGSSPKKGGNCDLSHQERLQSKSLHLSPQEQSASYQDRRQSWRRASMKETNRRKSLHPIHQGITELSRSISVDLAESKRLGCLLLSSFQFSIQKLEPFLRDTKGFSLESFRAKASSLSEELKHFADGLETDGTLQKCFEDSNGKASDFSLEASVAEMKEYITKFSLERQTWDQLLLHYQQEAKEILSRGSTEAKITEVKVEPMTYLGSSQNEVLNTKPDYQKILQNQSKVFDCMELVMDELQGSVKQLQAFMDESTQCFQKVSVQLGKRSMQQLDPSPARKLLKLQLQNPPAIHGSGSGSCQ chain 5: SAQNEREKLQIKIDEMDKILKKIDNCLTEMETETKNLEDEEKNNPVEEWDSEMRAAEKELEQLKTEEEELQRNLLELEVQKEQTLAQIDFMQKQRNRTEELLDQLSLSEWDVVEWSDDQAVFTFVYDTIQLTITFEESVVGFPFLDKRYRKIVDVNFQSLLDEDQAPPSSLLVHKLIFQYVEEKESWKKTCTTQHQLPKMLEEFSLVVHHCRLLGEEIEYLKRWGPNYNLMNIDINNNELRLLFSSSAAFAKFEITLFLSAYYPSVPLPSTIQNHVGNTSQDDIATILSKVPLENNYLKNVVKQIYQDLFQDCHFYH |  | ~1 |  | 
4 | SPC24/SPC25^L154A-L176A (complex, human, SPC24, human; SPC25, human, L154A and L176A; limits not restated, likely full length; GST cleaved off with 3C protease; also called SPC^M2; source: E. coli BL21(DE3)-codon-plus-RIPL, purified (glutathione-agarose, 3C protease, SEC)) chain 1: MAAFRDIEEVSQGLLSLLGANRAEAQQRRLLGRHEQVVERLLETQDGAEKQLREILTMEKEVAQSLLNAKEQVHQGGVELQQLEAGLQEAGEEDTRLKASLLQLTRELEELKEIEADLERQEKEVDEDTTVTIPSAVYVAQLYHQVSKIEWDYECEPGMVKGIHHGPSVAQPIHLDSTQLSRKFISDYLWSLVDTEW chain 2: MVEDELALFDKSINEFWNKFKSTDTSCQMAGLRDTYKDSIKAFAEKLSVKLKEEERMVEMFLEYQNQISRQNKLIQEKKDNLLKLIAEVKGKKQELEVLTANIQDLKEEYSRKKETISTANKANAERLKRLQKSADLYKDRLGLEIRKIYGEKAQFIFTNIDPKNPESPFMFSLHANEARDYEVSDSAPHLEGLAEFQENVRKTNNFSAFLANVRKAFTATVYN |  |  | ~27 | 
5 | SPC24^Y138A/SPC25 (complex, human, SPC24, human, Y138A; SPC25, human; limits not restated, likely full length; GST cleaved off with 3C protease; also called SPC^M1; source: E. coli BL21(DE3)-codon-plus-RIPL, purified (glutathione-agarose, 3C protease, SEC)) chain 1: MAAFRDIEEVSQGLLSLLGANRAEAQQRRLLGRHEQVVERLLETQDGAEKQLREILTMEKEVAQSLLNAKEQVHQGGVELQQLEAGLQEAGEEDTRLKASLLQLTRELEELKEIEADLERQEKEVDEDTTVTIPSAVAVAQLYHQVSKIEWDYECEPGMVKGIHHGPSVAQPIHLDSTQLSRKFISDYLWSLVDTEW chain 2: MVEDELALFDKSINEFWNKFKSTDTSCQMAGLRDTYKDSIKAFAEKLSVKLKEEERMVEMFLEYQNQISRQNKLIQEKKDNLLKLIAEVKGKKQELEVLTANIQDLKEEYSRKKETISTANKANAERLKRLQKSADLYKDRLGLEIRKIYGEKLQFIFTNIDPKNPESPFMFSLHLNEARDYEVSDSAPHLEGLAEFQENVRKTNNFSAFLANVRKAFTATVYN |  |  | ~5 | 
6 | SPC25_(92–224) (domain or fragment, human, UniProt Q9HBM1 92-224, looked up, SPC25, human, residues 92–224 (RWD domain); source: E. coli BL21(DE3)-codon-plus-RIPL, co-purified with SPC24 (glutathione-agarose, 3C protease, SEC)) KKQELEVLTANIQDLKEEYSRKKETISTANKANAERLKRLQKSADLYKDRLGLEIRKIYGEKLQFIFTNIDPKNPESPFMFSLHLNEARDYEVSDSAPHLEGLAEFQENVRKTNNFSAFLANVRKAFTATVYN | binds |  |  | 
